Experiments:
HIS-LSD1 [1] = target: T1, HIS-LSD1 (Homo sapiens, UniProt O60341); assay: Demethylase assay on histone H3 peptides, Western blotting with methyl-specific antibodies; format: biochemical; parameters: Full length (1-851aa) and C-terminal deleted (1-427 aa) human LSD1 cDNAs; 6xHis (N); made in house; host or cells: bacteria (IPTG induction); conditions: 1 μg LSD1, 1 nmole peptide; modification-specific antibody
Source text: LSD1 is a flavin-containing protein based on its ability to bind FAD ((Humphrey et al., 2001), and data not shown). Its sequence homology with amine oxidases predicts that LSD1 may catalyze oxidation reactions of biogenic amines including monoamine, polyamines or N-methylated protein substrates (such as histones) (Bannister et al., 2002). Amine oxidation catalyzed by flavin-containing amine oxidase is characterized by oxidative cleavage of the a-carbon bond of the substrate to form an imine intermiediate, which, in turn, is hydrolyzed to form an aldehyde and amine via a non-enzymatic process. In a complete catalytic cycle, the cofactor FAD is reduced to FADH2 and then is likely to be re-oxidized by oxygen to produce hydrogen peroxide (Binda et al., 2002). […] The HIS-LSD1 proteins were incubated with histone H3 peptides carrying dimethylated K4 (diMeK4H3) or K9 (diMeK9H3) and the methylation status was determined using a diMeK4H3 or diMeK9H3 specific antibody, respectively. […]
Demethylase assay. […] The reaction mixture was analyzed by SDS-PAGE/Western blotting using methyl-specific antibodies, or by formaldehyde formation assay to examine the removal and conversion of the methyl group to formaldehyde, or by mass spectrometry to identify the demethylated peptide.

HIS-LSD1 [2] = target: T1, HIS-LSD1; assay: Demethylation-FDH coupled spectrophotometric assay (formaldehyde formation); format: biochemical; parameters: Full length (1-851aa) and C-terminal deleted (1-427 aa) human LSD1 cDNAs; 6xHis (N); made in house; conditions: for formaldehyde production (absorbance at OD 340 nm): peptide used as substrate of HIS-LSD1
Source text: We used a third independent method to investigate the possibility that LSD1 is a histone demethylase. […] To determine whether formaldehyde was produced in LSD1-mediated enzymatic reactions, we first used the formaldehyde dehydrogenase (FDH) assay to detect the presence of formaldehyde (Lizcano et al., 2000). This assay employs formaldehyde dehydrogenase to convert formaldehyde to formic acid using NAD^+ as the electron acceptor, whose reduction to NADH can be spectrophotometrically measured at OD 340 nm. Thus, when the demethylation reaction is coupled with the FDH assay, the enzymatic activity of LSD1 and reaction kinetics can be determined by measuring the production of NADH. A standard curve was first generated using purified FDH (EC 1.2.1.46), NAD^+ and different concentrations of formaldehyde ranging from 1 μM to 10 mM, within which a linear relationship was found between the production of NADH and the range of formaldehyde used in the assay. Subsequently, the coupled demethylation-FDH assays were carried out within this linear range and were initiated with the addition of the diMeK4H3 substrates. The continuous production of the formaldehyde as the demethylation proceeded was monitored by OD measurement at 340 nm at different time points. […] We next used the demethylation-FDH coupled spectrophotometric assay as another independent means to investigate the substrate specificity of LSD1.
Formaldehyde Dehydrogenase (FDH) assay. Formaldehyde formation was continuously monitored by a coupled spectrophotometric assay (Lizcano et al., 2000) using formaldehyde dehydrogenase (FDH). […] The absorbance at 340 nm (ε340=6.22 mM^−1 cm^−1 for NADH) was measured at each time point in a 0.5 min interval using Beckman DU640 spectrophotometer. The OD 340 nm absorbance at the moment of the substrate addition was considered as 0 and this was used as the 0 min time point. Over a 10 min period, a kinetic software program automatically recorded the absorbance at each time point. The data were analyzed using the Excel program. […]

LSD1 [3] = target: LSD1 (Homo sapiens, UniProt O60341); assay: LSD1 demethylation assay on nucleosomal substrates (mononucleosomes), Western blotting; format: biochemical; parameters: Full length (1-851aa) and C-terminal deleted (1-427 aa) human LSD1 cDNAs; 6xHis (N); made in house; host or cells: bacteria; conditions: for stimulation of LSD1 demethylation activity: CoREST deletion mutants
Method: Preparation of mononucleosome. Mononucleosome was made according to a standard protocol (Tagami et al., 2004; Utley et al., 1996). Briefly, nuclear pellet from both TSA-treated or non-treated HeLa cells was homogenized for 60 times with type A pestle to obtain oligo-nucleosomes. The oligo-nucleosomes were then digested with micrococcal nuclease (40 units/mL) for 10 mins at 30° C. The nuclease is inactivated by 5 mM EDTA. Digested materials were spun at 14000 rpm for 3 mins. Resulting supernatant was spun again for additional 3 mins at the same speed. Supernatant from the second spin was subject to 10-25% glycerol gradient sedimentation. The monocleosome-containing fractions were identified by examining aliquots of fractions (treated with proteinase K) on DNA agarose gel. An aliquot of TSA-treated or non TSA-treated mononucleosome, a kind gift from Dr. Yoshihiro Nakatani's Lab in Dana Faber Cancer Institute, Harvard Medical School (Tagami et al., 2004), was used here as a control for the quality of mononucleosome made in our lab.
Demethylation assay. LSD1 demethylation activity on free histone or nucleosomal histone was carried out as previously reported (Shi et al., 2004). Briefly, bulk histones or mononucleosomes were incubated with purified His-LSD1 with or without purified His-CoREST, His-CoREST mutants, His-BHC80 and/or GST-HDAC1 in the histone demethylase activity (HDM) assay buffer (50 mM Tris pH8.5, 50 mM KCl, 5 mM MgCl, 0.5% BSA and 5% glycerol) from 10 mins up to 1 hour at 37° C. The demethylase activity of LSD1 under various conditions was evaluated by Western blotting using K4-H3 methylation-specific antibodies.

GST-LSD1 = target: T2, GST-LSD1 (Homo sapiens, UniProt O60341); assay: GST pulldown of HIS-tagged CoREST and mutants; format: binding; conditions: Coomassie Blue staining
T2 construct: made in house; host or cells: bacteria (inferred from 'similar procedure' to the His-tagged proteins)
Method: To identify domains of CoREST that are involved in physical interactions with LSD1, GST-LSD1 or GST was incubated with bacterially purified, HIS-tagged CoREST and its mutant derivatives. […] This places the putative LSD1-binding domain within the C-terminal functional domain of CoREST, somewhere between aa 293-381 of CoREST. […] We therefore speculate that the SANT2 domain may be involved in mediate binding to the nucleosomal substrate. Taken together, these findings are consistent with the idea that CoREST functions as a bridging protein. The weak stimulatory activity of the N-terminal CoREST (del1, aa 1-293) remains unclear at the present time.
GST and GSTLSD1 plamsids were kind gifts from Dr. Tadashi Baba's Lab in Japan (Iwase et al., 2004). Expression and purification of GST and GSTLSD1 proteins were done using similar procedure as outlined for purification of his-tagged recombinant proteins. For GST-bead pulldown experiment, 2 μg of each purified his-tagged wt or del CoREST proteins were incubated with 5 μg of bound GST and GSTLSD1 proteins at 4° C. for 4 hrs in a binding buffer (50 mM Tris, pH 8.0, 300 mM NaCl, 1 mM DTT, 0.5 mM EDTA and 0.1% NP-40). The beads were washed 3 times in the binding buffer, resuspended in 2×SDS protein sample buffer, boiled for 5 mins and loaded onto 15% SDS PAGE gel. The gel was then stained with Coomassie Blue.

SCN2A = conditions: Rat-1 fibroblast cells, TSA treatment; cited from earlier work
LSD1 target genes = assay: RT-PCR of LSD1 target genes / mRNA in HeLa cells; format: cell-based, human; conditions: TSA treatment
Source text: RT-PCR. Total RNA samples were isolated from 2×10^6 cells by Trizol reagent (Sigma). After DNase treatment, the RNA samples were purified by phenol-chloroform extraction and ethanol precipitation. 38 PCR cycles were used for SCN1A, SCN2A, SCN3A and M4 AchR and 28 PCR cycles for GAPDH. Primers used in RT-PCR were as follows: SCN1A up (5′-[…]-3′; SEQ ID NO: 1), down (5′-[…]-3′; SEQ ID NO: 2); SCN2A up (5′-[…]-3′; SEQ ID NO: 3), down (5′-[…]-3′; SEQ ID NO: 4) SCN3A up (5′-[…]-3′; SEQ ID NO: 5), down (5′-[…]-3′; SEQ ID NO: 6); p57^KIP2 up (5′-[…]-3′; SEQ ID NO: 7), down (5′-[…]-3′; SEQ ID NO: 8); GAPDH up (5′-[…]-3′; SEQ ID NO: 9), down (5′-[…]-3′; SEQ ID NO: 10).
(§1) Knockdown LSD, CoREST and Proteasome inhibitor (PI) treatment. Stable cell lines which express mutant GFP-shRNA, CtBP-shRNA, LSD1-shRNA or CoREST-shRNA were generated as previously described (Shi et al., 2003; Sui et al., 2002). To prevent proteasome-mediated protein degradation, the cells were treated with ZL3VS at final concentration 10 μM for 24 hours in culture then harvested. The protein and mRNA levels of the shRNA-knockdown cells with or without PI treatment were estimated by Western blotting and RT-PCR as previously described (Shi et al., 2004).

LSD1 [4] = assay: LSD1 protein level in knockdown cells (immunostaining, Western blotting); format: cell-based, human; conditions: CoREST shRNA treated cells; 10 μM for 24 hours
Method: as §1

## diMeK9H3: Synthetic histone H3 peptide (1-21aa) carrying dimethylated K9
HIS-LSD1 [1]
  dimethylation level of H3 peptide after incubation with LSD1: failed to reduce the dimethylation level at K9
HIS-LSD1 [2]
  formaldehyde production (absorbance at OD 340 nm): not

## diMeK4H3: Synthetic histone H3 peptide (1-21 aa) carrying dimethylated K4
HIS-LSD1 [1]
  dimethylation level of H3 peptide after incubation with LSD1: effectively reduced dimethylation level at K4
HIS-LSD1 [2]
  formaldehyde production (absorbance at OD 340 nm): robust increase
HIS-LSD1 [2]; purified HIS-LSD1, Lineweaver-Burk transformation, read-out: apparent Km for the diMeK4H3 substrates
  Km: ~30 µM

## del 5: CoREST deletion mutant aa 293-381
LSD1 [3]
  stimulation of LSD1 demethylation activity: fail to stimulate its activity
GST-LSD1
  binding to LSD1: bound LSD1

## CC(/C=C/C(=O)NO)=C\[C@@H](C)C(=O)c1ccc(N(C)C)cc1 [TSA, Trichostatin A]
SCN2A
  SCN2A expression: unaffected
LSD1 target genes
  expression of LSD1 target genes SCNA2 and SCNA3: de-repression
LSD1 [3]; hyperacetylated nucleosomes isolated from TSA-treated HeLa cells, less susceptible
  difference in CoREST/LSD1-mediated demethylation, untreated vs TSA-treated nucleosomes: approximately 4 fold

## HDAC1: Bacterially purified histone deacetylase 1
LSD1 [3]; bacterially purified protein added to recombinant LSD1
  effect of added protein on ability of recombinant LSD1 to demethylate nucleosomal substrates: no effect

## del 3: CoREST deletion mutant aa 105-381
LSD1 [3]
  stimulation of LSD1 demethylation activity: fail to stimulate its activity
GST-LSD1
  binding to LSD1: bound LSD1

## CC(C)C[C@@H](/C=C/S(C)(=O)=O)NC(=O)[C@H](CC(C)C)NC(=O)[C@H](CC(C)C)NC(=O)OCc1ccccc1 [ZL3VS]
LSD1 [4]
  LSD1 steady state level: restored the LSD1 steady state level
